These results are taken from PMC5603367 (Journal of controlled release : official journal of the …, 2017).

In test [1] the target is leptin receptor (Mus musculus) (UniProt P48356). In words: SPR. Conditions: cited from earlier work.
In test [2] the target is T1, Recombinant human leptin receptor-Fc chimera (human, UniProt P48357 22-839).
T1 sequence (looked up): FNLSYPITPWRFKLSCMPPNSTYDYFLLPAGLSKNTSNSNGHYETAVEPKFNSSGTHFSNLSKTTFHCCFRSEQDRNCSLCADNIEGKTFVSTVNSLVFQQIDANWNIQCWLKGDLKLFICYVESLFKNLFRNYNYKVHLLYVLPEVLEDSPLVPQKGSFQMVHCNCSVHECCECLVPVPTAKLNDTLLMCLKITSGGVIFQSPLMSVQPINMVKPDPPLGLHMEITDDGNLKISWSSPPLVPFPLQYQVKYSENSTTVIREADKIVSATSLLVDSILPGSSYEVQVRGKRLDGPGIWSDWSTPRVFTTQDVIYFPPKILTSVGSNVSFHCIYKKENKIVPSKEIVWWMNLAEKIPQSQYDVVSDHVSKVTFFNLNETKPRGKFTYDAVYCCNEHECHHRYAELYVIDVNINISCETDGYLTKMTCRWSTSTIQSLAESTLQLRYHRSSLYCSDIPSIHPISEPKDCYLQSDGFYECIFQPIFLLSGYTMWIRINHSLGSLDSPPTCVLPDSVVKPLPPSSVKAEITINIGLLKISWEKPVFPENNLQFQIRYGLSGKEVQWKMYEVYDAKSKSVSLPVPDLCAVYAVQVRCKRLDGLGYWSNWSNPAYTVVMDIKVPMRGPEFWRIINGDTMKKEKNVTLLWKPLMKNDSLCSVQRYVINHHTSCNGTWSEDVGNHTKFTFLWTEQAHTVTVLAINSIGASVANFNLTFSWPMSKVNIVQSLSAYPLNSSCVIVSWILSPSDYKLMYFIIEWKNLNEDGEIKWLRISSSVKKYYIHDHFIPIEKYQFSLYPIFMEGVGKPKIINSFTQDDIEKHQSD
In words: SPR.

Chain of leptin receptor (Mus musculus) (P48356 22-839): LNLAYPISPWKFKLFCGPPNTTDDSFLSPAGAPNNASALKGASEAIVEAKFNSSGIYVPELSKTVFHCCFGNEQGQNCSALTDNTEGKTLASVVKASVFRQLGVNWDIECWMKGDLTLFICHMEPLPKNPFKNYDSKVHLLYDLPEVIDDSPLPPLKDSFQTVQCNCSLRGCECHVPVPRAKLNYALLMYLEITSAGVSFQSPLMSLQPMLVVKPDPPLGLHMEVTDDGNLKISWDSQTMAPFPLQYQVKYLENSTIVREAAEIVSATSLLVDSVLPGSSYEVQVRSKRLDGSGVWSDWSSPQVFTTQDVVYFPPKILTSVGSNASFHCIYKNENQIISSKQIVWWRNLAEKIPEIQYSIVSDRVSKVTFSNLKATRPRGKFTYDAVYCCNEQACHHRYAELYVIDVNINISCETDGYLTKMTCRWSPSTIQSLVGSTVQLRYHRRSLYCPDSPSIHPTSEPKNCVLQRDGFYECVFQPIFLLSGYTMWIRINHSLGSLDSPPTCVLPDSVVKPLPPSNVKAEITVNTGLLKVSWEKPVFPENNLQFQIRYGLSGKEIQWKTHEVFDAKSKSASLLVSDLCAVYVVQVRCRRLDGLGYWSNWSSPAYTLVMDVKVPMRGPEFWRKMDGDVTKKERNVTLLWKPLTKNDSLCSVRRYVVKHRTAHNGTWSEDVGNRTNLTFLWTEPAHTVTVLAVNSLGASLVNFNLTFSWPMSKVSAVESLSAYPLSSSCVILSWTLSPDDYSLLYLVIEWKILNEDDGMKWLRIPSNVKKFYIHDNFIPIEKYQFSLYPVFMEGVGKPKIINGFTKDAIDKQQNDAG

In the case of leptin (from UniProt P41160), the Kd (as a rule, a measure of binding affinity in units of concentration) in test [1] is 0.12 nM.

B1: Recombinant mouse leptin (ligand, UniProt P41160 22-167, looked up)
chain: VPIQKVQDDTKTLIKTIVTRINDISHTQSVSAKQRVTGLDFIPGLHPILSLSKMDQTLAVYQQVLTSLPSQNVLQIANDLENLRDLLHLLAFSKSCSLPQTSGLQKPESLDGVLEASLYSTEVVALSRLQGSLQDILQQLDVSPEC
Turning to B1, the Kd in test [2] amounted to 0.089 nM.

B2: Leptin N-terminal conjugate with Pluronic P85 (LepNP85), 1:1 conjugate (ligand, mouse, UniProt P41160 22-167, looked up)
chain: VPIQKVQDDTKTLIKTIVTRINDISHTQSVSAKQRVTGLDFIPGLHPILSLSKMDQTLAVYQQVLTSLPSQNVLQIANDLENLRDLLHLLAFSKSCSLPQTSGLQKPESLDGVLEASLYSTEVVALSRLQGSLQDILQQLDVSPEC
modifications: one chain of Pluronic P85 on the N-terminal amine (reductive amination, secondary amine)
On to B2, for which the Kd in test [2] came to 0.2 nM.

B3: Leptin N-terminal conjugate with poly(ethylene glycol) (LepNPEG5K), 1:1 conjugate (ligand, mouse, UniProt P41160 22-167, looked up)
chain: VPIQKVQDDTKTLIKTIVTRINDISHTQSVSAKQRVTGLDFIPGLHPILSLSKMDQTLAVYQQVLTSLPSQNVLQIANDLENLRDLLHLLAFSKSCSLPQTSGLQKPESLDGVLEASLYSTEVVALSRLQGSLQDILQQLDVSPEC
modifications: one chain of PEG (average molecular mass 5000 Da) on the N-terminal amine (reductive amination)
B3: the Kd in test [2] stood at 0.28 nM.
